Measured values reported in patent US7550150B2, “Methods of treating or preventing a disease, disorder or condition associated with a viral infection” (Barros Research Institute, priority 2005, dated 2009).
Where “and” joins values, the source holds several entries; their conditions need not be identical. Equal entries are not always repeated. Where two headings read alike, the source gives them in different places. Marks after values point to notes of the source that are not given here.

Tests used:
[1] = test system: influenza virus; settings: orally; cited from earlier work
[2] = test system: Punta Toro virus, Adames strain; design: species or system C57BL/6 mice; settings: mouse, in vivo
[3] = toxicity controls; 75 mg/kg/day i.p. bid x5
[4] = for tolerability in toxicity control animals: all surviving and losing no weight during therapy; for Tox Controls Surv/Total: uninfected, two treatments
[5] = test system: Banzi virus (H336 strain); assay: Banzi virus infection in mice (Example 7); assay type: in vivo, BALB/c mice; settings: for Infected, treated MDD ± SD: mice dying before day 21; for weight loss: placebo 9.6%; for Average brain titer: placebo 6.9
[6] = Uninfected toxicity controls (Example 7); assay type: in vivo, BALB/c mice
Experimental: Experiment Design: Animals were injected i.p. with either 10^−3 dilution of Banzi virus stocks diluted in minimal essential media (MEM), or were sham-inoculated. This virus concentration had previously produced approximately 90% mortality in mice. Animals were treated with two doses of 10, 1, 0.1 μg/mouse of Barrogen or with drug vehicle (placebo group). The first dose was administered 4-6 h prior to virus inoculation. The second dose was given 48 h later. As a positive control a group of 15 infected mice were treated with a single dose of Ampligen® 24 h prior to virus inoculation at a dose of 1 mg/kg. Groups of 3 sham-inoculated animals used as toxicity controls were treated with identical compounds on identical schedules to the infected animals.

[7] = every dose used
[8] = dosages used; no deaths or weight loss
[9] = test system: Punta Toro virus, Adames strain; design: species or system C57BL/6 mice; settings: mouse, in vivo; remark: listed apart in the source
[10] = dosages used; no deaths or weight loss; remark: listed apart in the source
[11] = test system: Banzi virus (H336 strain); assay type: in vivo, Balb/c mice; settings: for Infected, treated % survival (alive/total): 21 days; for Infected, treated % Mean wt. change: day 0 vs day 10
[12] = 0.1 μg/mouse/day i.p. 4-6 h pre-virus and 48 hr later
[13] = 1 μg/mouse/day i.p. 4-6 h pre-virus and 48 hr later
[14] = 10 μg/mouse/day i.p. 4-6 h pre-virus and 48 hr later
[15] = 0.1 μg/treatment i.p. −4 hpi and 2 dpi
[16] = 1 μg/treatment i.p. −4 hpi and 2 dpi

CCOC(=O)C1=C[C@@H](OC(CC)CC)[C@H](NC(C)=O)[C@@H](N)C1 [Oseltamivir]
doses down to which highly active against influenza virus infections in mice [1]: ~1 mg/kg/day

NC(=O)c1ncn([C@@H]2O[C@H](CO)[C@@H](O)[C@H]2O)n1 [Ribavirin, reference compound]
Liver virus [2]: not detectable
weight loss during the treatment period [3]: 0.8 g

GM-CSF: Granulocyte macrophage - colony stimulating factor
tolerability in toxicity control animals [4]: well tolerated
Tox Controls Surv/Total ([4]; 20 ng i.p.): 3/3
Tox Controls Surv/Total ([4]; 200 ng i.p.): 3/3

poly I · poly C12u [Ampligen, reference compound]
Infected, treated Surv/Total ([5]; 1 mg/kg i.p. single dose 24 h pre-virus exposure): 10/10 (100%)***
survival ([5]; 1 mg/kg single dose 24 h prior, p<0.001): 100%
animals with virus detected in brain ([5]; 1 mg/kg, 8 dpi): 1 of the 5
brain virus titer ([5]; 1 mg/kg, 8 dpi, placebo 6.9 log10 CCID50/g of tissue): 5.6
average weight gain ([5]; 1 mg/kg, by 8 dpi): 1.9%
Uninfected toxicity control Surv/Total ([6]; 1 mg/kg i.p. single dose): 3/3 (100%)

B1: rBBX-01: Recombinant Apicomplexa-related protein (ARP) having the sequence of SEQ ID NO:20; termed Barrogen, also called rBBX-01 or E1 (protein, listed as Eimeria tenella)
chain: GEEADTQAWDTSVREWLVDTGRVFAGGVASIADGCRLFGAAVEGEGNAWEELVKTNYQIEVPQEDGTSISVDCDEAETLRQAVVDGRAPNGVYIGGTKYKLAEVKRDFTFNDQNYDVAILGKNKGGGFLIKTPNENVVIALYDEEKEQNKADALTTALNFAEYLYQGGF
Infected, treated Surv/Total [5, 12]: 5/10 (50%)*
Infected, treated MDD ± SD [5, 12]: 8.4 ± 5.5
virus in the brains ([5]; 0.1 μg/mouse, 8 dpi): No virus was detected
weight loss ([5]; 0.1 μg/mouse, 8 dpi): 0.2%
survival ([5]; 0.1 μg/mouse, placebo 10%, p<0.05): 50%
Infected, treated Surv/Total [5, 13]: 7/10 (70%)***
Infected, treated MDD ± SD [5, 13]: 14.3 ± 1.5
animals with virus detected in brain ([5]; 1 μg/mouse, 8 dpi): 2 out of 5
Average brain titer ([5]; 1 μg/mouse, 8 dpi): 4.6 log10 CCID50
weight loss ([5]; 1 μg/mouse, 8 dpi): 0.5%
survival ([5]; 1 μg/mouse, placebo 10%, p<0.001): 70%
Infected, treated Surv/Total [5, 14]: 4/10 (40%)
Infected, treated MDD ± SD [5, 14]: 14.2 ± 3.5
animals with virus detected in brain ([5]; 10 μg/mouse, 8 dpi): 2 out of 5
Average brain titer ([5]; 10 μg/mouse, 8 dpi): 2.8 log10 CCID50
weight loss ([5]; 10 μg/mouse, 8 dpi): 1.3%
survival ([5]; 10 μg/mouse, not significantly higher than placebo): 40%
tolerability in toxicity control mice [7]: well tolerated
tolerability in toxicity controls [8]: well tolerated
Hepatic icterus reduced [9]: 17-43%
mice protected / cured [9]: 100%
serum ALT [9]: markedly reduced
serum virus titers [9]: significantly reduced
Mean Liver Score ± SD ([9]; ip): 2.6 ± 0.2 and 2.7 ± 0.3 and 2.0 ± 0.6 and 2.9 ± 0.5
Uninfected toxicity control Surv/Total ([6]; 0.1 μg/mouse/day i.p., two doses 48 h apart): 3/3 (100%)
Uninfected toxicity control Surv/Total ([6]; 1 μg/mouse/day i.p., two doses 48 h apart): 3/3 (100%)
Uninfected toxicity control Surv/Total ([6]; 10 μg/mouse/day i.p., two doses 48 h apart): 3/3 (100%)
mice protected (survival) [2]: 100%
reduction of serum viral load [2]: more than 2 logs
serum ALT [2]: markedly reduced
tolerability in toxicity controls [10]: well tolerated
tolerability in toxicity control animals [4]: well tolerated
Infected, treated % survival (alive/total) [11, 15]: 47% (7/15)**
Infected, treated % Mean wt. change [11, 15]: -1.4 g
Infected, treated % survival (alive/total) [11, 16]: 47% (7/15)**
Infected, treated % Mean wt. change [11, 16]: -1.0 g
mean-day-to-death ([11]; Barrogen-treated vs placebo-treated mice (FIG. 30)): significant increase
